These results are taken from JP2000515494A (dated 2000).

For this test, the target named is T1, 4A6/IL-5複合体 (hIL-5 captured on immobilised mAb 4A6) (human, UniProt P05113 20-134).
T1 construct: also called 4A6/IL-5 complex
Nature of the test: BIAcore: mAb 4A6 immobilised, hIL-5 captured, IL-5Rα injected at 15, 30, 60, 120 nM.

T1 sequence (P05113 20-134): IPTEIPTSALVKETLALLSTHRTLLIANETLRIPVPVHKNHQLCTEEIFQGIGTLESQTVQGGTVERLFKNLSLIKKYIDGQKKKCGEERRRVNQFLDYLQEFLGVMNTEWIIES

B1: 可溶性IL-5レセプターα鎖 (soluble IL-5 receptor alpha chain) (receptor, UniProt Q01344 21-335, looked up)
chain: DLLPDEKISLLPPVNFTIKVTGLAQVLLQWKPNPDQEQRNVNLEYQVKINAPKEDDYETRITESKCVTILHKGFSASVRTILQNDHSLLASSWASAELHAPPGSPGTSIVNLTCTTNTTEDNYSRLRSYQVSLHCTWLVGTDAPEDTQYFLYYRYGSWTEECQEYSKDTLGRNIACWFPRTFILSKGRDWLAVLVNGSSKHSAIRPFDQLFALHAIDQINPPLNVTAEIEGTRLSIQWEKPVSAFPIHCFDYEVKIHNTRNGYLQIEKLMTNAFISIIDDLSKYDVQVRAAVSSMCREAGLWSEWSQPIYVGNDE
notes: also called IL-5Pα [sic]
The term koff denotes the rate constant with which the complex falls apart. A word on the kon: it is the rate constant with which the complex forms. Read a high kon as faster complex formation. For the molecule B1, the off-rate (koff) worked out at 0.0023 s⁻¹ and the on-rate constant (kon) turned out to be 630000 M⁻¹ s⁻¹.
